# T1: FOSB (Homo sapiens, UniProt P53539)
# T1 chain: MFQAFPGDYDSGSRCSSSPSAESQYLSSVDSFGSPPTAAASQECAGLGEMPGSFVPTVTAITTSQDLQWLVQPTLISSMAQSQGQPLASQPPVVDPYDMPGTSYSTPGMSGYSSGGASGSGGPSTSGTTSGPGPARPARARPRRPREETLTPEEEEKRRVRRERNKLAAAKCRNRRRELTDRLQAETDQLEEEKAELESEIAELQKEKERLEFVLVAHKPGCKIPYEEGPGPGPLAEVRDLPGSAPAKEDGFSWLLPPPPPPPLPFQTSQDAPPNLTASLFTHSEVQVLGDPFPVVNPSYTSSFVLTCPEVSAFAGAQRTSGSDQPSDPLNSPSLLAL
# T2: CEBPG (Homo sapiens, UniProt P53567)
# T2 chain: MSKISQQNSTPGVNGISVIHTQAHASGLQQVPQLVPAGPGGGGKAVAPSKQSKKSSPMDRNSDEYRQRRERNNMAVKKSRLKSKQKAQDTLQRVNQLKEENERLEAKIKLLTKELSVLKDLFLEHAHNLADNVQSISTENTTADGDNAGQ
# T3: DDIT3 (Homo sapiens, UniProt P35638)
# T3 chain: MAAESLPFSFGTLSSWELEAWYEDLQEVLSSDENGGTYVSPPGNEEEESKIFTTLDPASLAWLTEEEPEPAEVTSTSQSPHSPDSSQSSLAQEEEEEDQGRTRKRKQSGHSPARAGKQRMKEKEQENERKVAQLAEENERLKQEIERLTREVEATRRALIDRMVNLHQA
# T4: FOSL2 (Homo sapiens, UniProt P15408)
# T4 chain: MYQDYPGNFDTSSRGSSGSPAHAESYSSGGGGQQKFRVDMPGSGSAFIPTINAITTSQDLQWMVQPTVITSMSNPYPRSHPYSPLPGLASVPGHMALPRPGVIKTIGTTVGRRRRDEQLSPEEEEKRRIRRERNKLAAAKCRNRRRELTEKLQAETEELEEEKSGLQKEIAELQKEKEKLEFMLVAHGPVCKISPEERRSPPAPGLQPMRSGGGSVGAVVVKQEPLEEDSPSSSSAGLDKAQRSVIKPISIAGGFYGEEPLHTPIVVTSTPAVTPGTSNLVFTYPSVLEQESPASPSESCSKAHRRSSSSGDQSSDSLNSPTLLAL
# T5: MAP2K6 (Homo sapiens, UniProt P52564)
# T5 chain: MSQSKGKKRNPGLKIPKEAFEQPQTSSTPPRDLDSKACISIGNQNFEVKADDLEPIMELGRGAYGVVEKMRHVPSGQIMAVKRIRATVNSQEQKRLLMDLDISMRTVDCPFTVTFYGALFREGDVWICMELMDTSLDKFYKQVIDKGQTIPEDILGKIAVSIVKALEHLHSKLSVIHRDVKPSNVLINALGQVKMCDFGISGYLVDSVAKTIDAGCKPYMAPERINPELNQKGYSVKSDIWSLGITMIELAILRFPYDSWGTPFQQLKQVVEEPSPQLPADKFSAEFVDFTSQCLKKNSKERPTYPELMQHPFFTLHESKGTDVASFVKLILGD
# T6: ELF3 (Homo sapiens, UniProt P78545)
# T6 chain: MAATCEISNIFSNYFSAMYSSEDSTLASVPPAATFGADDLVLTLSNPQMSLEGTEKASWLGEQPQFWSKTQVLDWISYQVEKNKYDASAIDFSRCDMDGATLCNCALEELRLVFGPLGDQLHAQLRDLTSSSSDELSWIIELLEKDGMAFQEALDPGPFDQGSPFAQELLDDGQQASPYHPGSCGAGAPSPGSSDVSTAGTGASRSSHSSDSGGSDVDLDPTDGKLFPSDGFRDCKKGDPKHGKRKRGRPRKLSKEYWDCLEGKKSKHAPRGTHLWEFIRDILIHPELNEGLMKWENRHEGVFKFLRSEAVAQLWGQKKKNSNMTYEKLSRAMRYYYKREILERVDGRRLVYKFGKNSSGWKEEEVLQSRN
# T7: CREBL2 (Homo sapiens, UniProt O60519)
# T7 chain: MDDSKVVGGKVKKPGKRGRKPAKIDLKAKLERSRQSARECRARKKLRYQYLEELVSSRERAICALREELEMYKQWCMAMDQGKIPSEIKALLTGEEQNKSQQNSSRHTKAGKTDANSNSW
# B1: NRF2 (protein)
# chain: MMDLELPPPGLPSQQDMDLIDILWRQDIDLGVSREVFDFSQRRKEYELEKQKKLEKERQEQLQKEQEKAFFAQLQLDEETGEFLPIQPAQHIQSETSGSANYSQVAHIPKSDALYFDDCMQLLAQTFPFVDDNEVSSATFQSLVPDIPGHIESPVFIATNQAQSPETSVAQVAPVDLDGMQQDIEQVWEELLSIPELQCLNIENDKLVETTMVPSPEAKLTEVDNYHFYSSIPSMEKEVGNCSPHFLNAFEDSFSSILSTEDPNQLTVNSLNSDATVNTDFGDEFYSAFIAEPSISNSMPSPATLSHSLSELLNGPIDVSDLSLCKAFNQNHPESTAEFNDSDSGISLNTSPSVASPEHSVESSSYGDTLLGLSDSEVEELDSAPGSVKQNGPKTPVHSSGDMVQPLSPSQGQSTHVHDAQCENTPEKELPVSPGHRKTPFTKDKHSSRLEAHLTRDELRAKALHIPFPVEKIINLPVVDFNEMMSKEQFNEAQLALIRDIRRRGKNKVAAQNCRKRKLENIVELEQDLDHLKDEKEKLLKEKGENDKSLHLLKKQLSTLYLEVFSMLRDEDGKPYSPSEYSLQQTRDGNVFLVPKSKKPDVKKN
# Experiments:
# FOSB = target: T1, FOSB; assay: DULIP (scaled)
# CEBPG [1] = target: T2, CEBPG; assay: DULIP (scaled)
# DDIT3 = target: T3, DDIT3; assay: DULIP (scaled)
# FOSL2 [2] = target: T4, FOSL2; assay: DULIP (scaled)
# MAP2K6 = target: T5, MAP2K6; assay: DULIP (scaled)
# ELF3 [3] = target: T6, ELF3; assay: DULIP (scaled)
# CEBPG [4] = target: T2, CEBPG; assay: FCCS (live HEK293T cells)
# CREBL2 = target: T7, CREBL2; assay: FCCS (live HEK293T cells)
# FOSL2 [5] = target: T4, FOSL2; assay: FCCS (live HEK293T cells)
# ELF3 [6] = target: T6, ELF3; assay: FCCS (live HEK293T cells)
# EIF3J = EIF3J (Homo sapiens, UniProt O75822); assay: FCCS (live HEK293T cells)
# Chain of EIF3J (O75822 2-258): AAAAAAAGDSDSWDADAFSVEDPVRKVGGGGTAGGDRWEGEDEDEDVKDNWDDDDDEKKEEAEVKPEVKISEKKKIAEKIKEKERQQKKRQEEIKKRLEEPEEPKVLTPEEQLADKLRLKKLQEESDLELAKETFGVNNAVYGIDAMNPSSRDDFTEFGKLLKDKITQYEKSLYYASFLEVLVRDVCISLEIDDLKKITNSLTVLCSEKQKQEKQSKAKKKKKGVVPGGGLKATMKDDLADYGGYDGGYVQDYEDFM
binder,measurement,setting,value
B1,Kd,FOSB,> 9 µM
same,Kd,CEBPG [1],> 9 µM
same,Kd,DDIT3,> 9 µM
same,Kd,FOSL2 [2],> 9 µM
same,Kd,MAP2K6,> 9 µM
same,Kd,ELF3 [3],> 9 µM
same,Kd,CEBPG [4],> 10 µM
same,Kd,CREBL2,> 10 µM
same,Kd,FOSL2 [5],> 10 µM
same,Kd,ELF3 [6],> 10 µM
same,Kd,EIF3J,> 10 µM

# From article PMC7490560 (2020)
